What all share (test): other fluorescence titration
For experiment [1], the target named is T1, Ffh (E. coli SRP protein), wild type (E. coli, UniProt P0AGD7 1-453).
T1 sequence (looked up): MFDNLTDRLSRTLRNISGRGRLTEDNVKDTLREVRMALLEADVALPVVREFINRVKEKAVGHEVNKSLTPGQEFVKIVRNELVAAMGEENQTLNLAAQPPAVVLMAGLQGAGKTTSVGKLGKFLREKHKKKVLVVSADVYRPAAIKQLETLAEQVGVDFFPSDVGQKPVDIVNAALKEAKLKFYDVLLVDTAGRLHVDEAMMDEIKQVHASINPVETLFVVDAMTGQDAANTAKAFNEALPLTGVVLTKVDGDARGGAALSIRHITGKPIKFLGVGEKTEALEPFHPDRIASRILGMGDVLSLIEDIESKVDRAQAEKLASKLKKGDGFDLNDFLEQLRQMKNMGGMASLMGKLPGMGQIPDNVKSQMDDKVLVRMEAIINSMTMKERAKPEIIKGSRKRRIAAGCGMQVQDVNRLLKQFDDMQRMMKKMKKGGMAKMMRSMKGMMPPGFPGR

The target of experiment [2] is T1, Ffh (E. coli SRP protein), wild type. This is another data set of the same source.
Experiment [3] shares this target. The source holds these as a separate data set.

Where two headings read alike, the source gives them in different places.

B1: FtsY lacking the first 46 amino acids of the A domain (wild-type reference) (domain or fragment, E. coli, UniProt P10121 47-497, looked up)
chain: ASEQAVEEQPQAHTEAEAETFAADVVEVTEQVAESEKAQPEAEVVAQPEPVVEETPEPVAIEREELPLPEDVNAEAVSPEEWQAEAETVEIVEAAEEEAAKEEITDEELETALAAEAAEEAVMVVPPAEEEQPVEEIAQEQEKPTKEGFFARLKRSLLKTKENLGSGFISLFRGKKIDDDLFEELEEQLLIADVGVETTRKIITNLTEGASRKQLRDAEALYGLLKEEMGEILAKVDEPLNVEGKAPFVILMVGVNGVGKTTTIGKLARQFEQQGKSVMLAAGDTFRAAAVEQLQVWGQRNNIPVIAQHTGADSASVIFDAIQAAKARNIDVLIADTAGRLQNKSHLMEELKKIVRVMKKLDVEAPHEVMLTIDASTGQNAVSQAKLFHEAVGLTGITLTKLDGTAKGGVIFSVADQFGIPIRYIGVGERIEDLRPFKADDFIEALFARED
As a reminder, the Kd is the equilibrium constant for the complex coming apart. A lower Kd goes with a tighter complex. The koff is the rate constant with which the complex falls apart. The low end stands for a long-lived complex, the high end for a short-lived complex. One may read the kon as a measure of how fast the partners come together. The low end stands for slow association, the high end for fast association. For B1, in experiment [1], the Kd was found to be 68.4 ± 4.2 nM, the koff turned out to be 0.00265 s⁻¹ and the association rate constant (kon) was 38800 M⁻¹ s⁻¹. In addition, in experiment [2], the affinity, expressed as Kd, was 82.7 ± 13 nM; the koff turned out to be 8.6e-06 s⁻¹; the kon was 104 M⁻¹ s⁻¹.

B2: FtsYΔN1 (FtsY residues 221-497, lacks the A domain and the first helix of the N domain) (domain or fragment, E. coli, UniProt P10121 221-497, looked up)
chain: KKIDDDLFEELEEQLLIADVGVETTRKIITNLTEGASRKQLRDAEALYGLLKEEMGEILAKVDEPLNVEGKAPFVILMVGVNGVGKTTTIGKLARQFEQQGKSVMLAAGDTFRAAAVEQLQVWGQRNNIPVIAQHTGADSASVIFDAIQAAKARNIDVLIADTAGRLQNKSHLMEELKKIVRVMKKLDVEAPHEVMLTIDASTGQNAVSQAKLFHEAVGLTGITLTKLDGTAKGGVIFSVADQFGIPIRYIGVGERIEDLRPFKADDFIEALFARED
In experiment [1], B2 gave a Kd of 14.9 ± 2.1 nM, a koff of 0.000605 s⁻¹ and a kon of 40500 M⁻¹ s⁻¹. In experiment [2], this molecule showed a Kd of 7.98 ± 1.1 nM, a koff of 5.47e-06 s⁻¹ and a kon of 685 M⁻¹ s⁻¹.

B3: FtsY204 (FtsY residues 204-497, includes helix N1) (domain or fragment, E. coli, UniProt P10121 204-497, looked up)
chain: LKTKENLGSGFISLFRGKKIDDDLFEELEEQLLIADVGVETTRKIITNLTEGASRKQLRDAEALYGLLKEEMGEILAKVDEPLNVEGKAPFVILMVGVNGVGKTTTIGKLARQFEQQGKSVMLAAGDTFRAAAVEQLQVWGQRNNIPVIAQHTGADSASVIFDAIQAAKARNIDVLIADTAGRLQNKSHLMEELKKIVRVMKKLDVEAPHEVMLTIDASTGQNAVSQAKLFHEAVGLTGITLTKLDGTAKGGVIFSVADQFGIPIRYIGVGERIEDLRPFKADDFIEALFARED
modifications: for NMR: 13C on the methyl groups of isoleucine, leucine and valine
Consider B3, for which the binding result in experiment [3] is reported as “binds”.

(Values after publication PMC2767265 (Nature structural & molecular biology, 2008).)
